Assay: yeast display, Sf9 membrane polyspecificity reagent, FACS + sequencing; frameworks hold sequencing errors
Summary of the method: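 Using colony PCR, genes from sorted yeast display clones were amplified, then sequenced on MiSeq at 2 × 250 and filtered by CDR length. The clones had been stained with 10% biotinylated, detergent-solubilized Sf9 membrane reagent for 1 hour at 4 °C and sorted by FACS into low and high (top ~1%) gates on anti-HA and streptavidin fluorescence. Polyreactivity labels come from the gate of origin.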

Row | Sequence | polyreactivity (PSR sort gate)
1 | QVQLVDSGGGLVQAGGSLRLSCAASGRIFPGKVMGWYRQAPGKERELVAAISSSGGSTYYADSVKGRFTISRDNAKNTVYLQMNSLKPEDTAVYYCAADSSDWPYDYWGQGTQVTVSS | low polyreactivity
2 | QVQLVESRGGLVQAEGSLRLSCAASGYTFTSNDMGWYRQAPGKERELVAAITWSGGTTYYADSVKGRFTISRDNAKNTVYLQMNSLKPEDTSVYYFAADVSLVYPYSYRYYYWGQGTQVTVSS | low polyreactivity
3 | QVQLVESGGGLVQAGGSLRLSCAASGLIFRHYAMGWYRQAPGKERELVAAIDYSGGSTYYADSVKGRFTISRDNAKNTVYLQMNSQKPEDTAVYYCAADYFWMYYSEYGYWGQGTQVTVSS | low polyreactivity
4 | QVQLVESGGGLVQAGGSLRLSCAASGSTFSTYAMGWYRQAPGKERELVAAIRSGGSTYYADSVKGRFTISRDNAKNTVYLQMNSLKPEDTAVYYCAAKPRNYSYRYYYWGQGTQVTVSS | high polyreactivity
5 | QVQLVESGGGLVQAGGSLRLSCAASGGIFKKYAMGWYRQAPGKERELVAVITSGGRTNYADSVKGRFTISRDNAKNTVYLLMNSLKPEDTAVYYCAAVYVTGSYRYGYWGQGSQVTVSS | high polyreactivity
6 | QVQLVESGGGLVQAGGSLRLSCAASGSIFSLNAMGWYRPAPGKERELVAVINRSGTRTYYADSVKGRFTISRDNAKNTVYLQMNSLKPEDTAVYYCNAQPSSGSDAQNEYWGQGTQVTVSS | high polyreactivity
7 | QVQLVESGGGLVQAGGSLRLSCAASGLTFHSNDMGRYRQAPWKETEFVAAITSGGNTYYADSVKGRFTISRDNAKNTVYLPMNSLKPEDTAVYYCNADYQDEEDDYWGQGTQVTVSS | low polyreactivity
8 | QVQLVESVVGLVQAGCSLRLSCDASGFIFYYYTMGWYRQATGKERELVAAISRSGGRTYYADSVKGLFTISRDYAKNTVYLQMNSMKPDDTAVYYCAADTPYQTPPQQYVEYDYWGQCTQVTVSS | high polyreactivity
9 | QVQLVESGGGLVQAGGSLRFSCAASRSIFFWYTMGWYRQAPGKYRELVATITGSGSSTTYADSVKGRFTISRDNAKNTVYLQMNSLKPEDTAVYYCAAADIIDHSFPYDYWGQGTQVTVSS | low polyreactivity
10 | QVQLVESGGGLVQAGGSLRLSCAASGRISYAYAMGRYRQAPGKERELVAAISGSGGSTYYADSVKWRFTISRDNAKNTVYFQMNTLKPEDTAVYYCAAGSGEYYGGKRYYWGQGTQVTVSS | low polyreactivity
11 | QVQLVESGGGLVQAGGSLRLSCDASGSTFWYYAMGWYRQAPGKERELVASITSSGSTNYADSVKGRFTISRDNAKNTVYLQMNSLKPEDTAVYYCNRVSKYERLSRYGYYGYYYWGQGTQVTVSS | high polyreactivity
12 | QVHLVETGGGLVQAGGSLRLSCGASGYIFSQYAMGCYRQAPGKERELVADITTSAGSTYYADSVKGRFTISRDNAKNTVYLQMNSVIPEDTAVYYCAADVYGHSYYDYDYWGQGTQVTVSS | low polyreactivity
13 | QVQLVESGGGLVQEGGSLRLSCASSGGIFDTNAKGWYRQARGKDREFVAAITGSGGSTYYADSVKGRFTISRDNAKNTVYLQMNSLIPEDTAVYYCAAPLSYYWVYIVRDGYDYWGQGTQVTVSS | low polyreactivity
14 | QVQLVESGGGLVQAGGSLRLSCAASGNTFWSYTMGWYRQAPGKERELVAAITRSGGSTYYADSVKGRFTISRDHAKNTVYLQMNSLKPEDTAVYYCAADYYSASRFGYWGQGTQVTVSS | high polyreactivity
15 | QVQLVESGGGLVQAGGSLRLCCAASGRIFAGNAMGWYRQAPGKEREFVAGISKGGGRTYYADSVKGRCTISRDNAKKTVYLQMNSLKPEDTAVYYCAALPPRASSDAGGWYVAEDYWGQGTQVTVSS | high polyreactivity
16 | QVQLVESGGGLVQAGGSLRLSCAASGLTFSPNAMGWYRQAPRKERELVAAISSSGGRTNYADSVKGRFTISRDNAKNTVYLQMNSLKPEDTAFYYCAARFYKTYPRMNYWGQGTQVTVSS | high polyreactivity
17 | QVQLVESGGGLVQAGGSLRLSCAPCGSIFPAYTMGWYRRAPGKERELVAAISRRGGSTYYADCVKGRFTISRDNEKNTVYLQMNRLKPEDTAVYDCAKVPDYRFEYWGQGSQVTVSS | high polyreactivity
18 | QVQLHESGGGLVQAGGSLRLICAASGSISILQSMGWYRQAPGKERELVAGINWGATTYYADRVKGRLTTSRDYAKNTVYLQMNSLKPEATAVYYCAVPTYYTNPLLYWGQGTQVTVSS | low polyreactivity
19 | QVQLVESGGGLVQAGGSLRLSCAASGRTFRINAMGWYRQAPGKERELVAAISFRTDSTYYADSVKGRFTISRDNAKNTVYLQMNSLKPEDTAVYYCDARGLQVRTYDYWGQGTQVTVSS | high polyreactivity
20 | QVQLVESGRGIVQAGGSLRLSCAASGSTLNDYAMGSSRPAPGKERELVAAINGSGGSTYYADSVKGRFTISRDNAKNTVYLQMNSLKPEDTAVYYCAAATTHRRRYGYWGQGTQVTVSS | low polyreactivity
21 | QVQLVESGGGLVQAGGSLRLSCPASGLIFRSYAMGRYRQAPGKERELVARISIRGGSTYYADSVKGRFTISRDNAKNTVYLQMNSLKPEDTAVYYCAAVGYLGGYRYDYWGQGTQVTVSS | high polyreactivity

Row | Sequence | polyreactivity (PSR sort gate)
22 | QVQLVESGGGLVQAGGSLRLSCAASGFIFNKNAMGWYRQAPGKERELVAAITFGGGTTYYADSVKGRFTISRDNAKNTVYLQMNSLKPEDTAVYYCNAVYYWYKGDYWGQGTQVTVSS | high polyreactivity
23 | QVQLVESGGGLVQAGGSLRLSCAASGRIFPRNAMGWYRQAPGKERELVAAISSGGGSTYYADSVKGRFTISRDNAKNTVYLQMNSLKPEDTAVYYCAKRAGWAGWYYRNDYWGQGTQVTVSS | high polyreactivity
24 | QVQLVESGGGLVQAGGSLRLSCAASGRTFYRNAMGWYRQAPGKERELVAAISSRGGSTYYADSVKGRFTISRDNAKNSVYLQMNSLKPEDTAVYYCAATYGYGGDYDYWGQGTQVTVSS | high polyreactivity
25 | QVQLVESGGGLVQAGGRLRLSCAASGYIFNYDMGWYRPAPGKERELVAAINYSGRTYYADSVKGRFTISRDNAKNTVYLQMNRLKAEDTAVYYCAARIIVDDVGTKYYYWGQGTQVTVSS | high polyreactivity
26 | QVQLVESGGGLVQAGGSLRLSCAASGFIFYYYAMGWYRQAPGKERELVAAITGSGGNTYYADSVKGRFTISRDNEKNSVFFHMNSLKPEDTAVYYCNTGYDRGGDYWGQGTQVTVSS | high polyreactivity
27 | QDQLVESGGGLVQAGGSLRLSCAPSGFIFEYNAMGWYRQAPGKESELVADISFSGGSTYYADSVKVRFTISRDNAKNTVYLQMKSLKPEDTAGYYCAARALASVSAHKYDYWGQGTQVTVSS | low polyreactivity
28 | QVQLVESGGGLVQAGGSLRLSCAASGLIFPFYTMGWYRQAPGKERELVAAISYSGGSTYYADSVKGRFAISRDNAKNTVYLQMNSLKPEDTAVYYCAKSYRTTYHFWSGYDYWGQGTQVTVSS | low polyreactivity
29 | QVQLQESGGGLVQAGGSLRLSCAASGSISGPHVMGWYRQAPGKVREFVAAINVGANTYYADNVKGRFTISRDNAKNTVYLQMNSLKPEDTAVYYCAAAYYGDIGHEYWGQGTQVTVSS | low polyreactivity
30 | QVQLVESGGGLVQAGGSLRLICAASGSIFEYYAIRLYRQAPGTERELVADITYDGGNTYYADSLKGRFTISRDNAKNTVYLQMNSLKPEDTAVYYCATEYRYWQSDYSTYFPYDYWGQGTQVTVSS | low polyreactivity
31 | QVQLVESGGGLVQAGGSLSLICAASGGTFYKYAMGWYRQAPGKERELDAAISRSGGSTYYADSVKGRFTISRDNAKNTVYLQINRLKPEDTAVYYCKAYGSYWDFDYWGQRTQVTVSS | high polyreactivity
32 | QVQLVESGGGLVQAGGSLRLSCAASGRIFNYYAMGWYRQATGKERELVARIDASGDSTYYADSVKGRFTISRDNAKNTVYLQMNSLKPEDTAVYYCNKDYLYSYLWGWKVYSYDYWGQGTQVTVSS | low polyreactivity
33 | QVQLVESGGGLVQAGGSLRLSCAASGRIFTTNAMGWYRQAPGKERELVASISKSGGSTYYADSVKGRFTISRDTAKNTVYLQMNSLKPEDTAVYYCAASSYSTSYIRGDYWGQGTQVTVSS | low polyreactivity
34 | QVQLVESGGGLVQAGGSLRLSCAASGFIFYKYAMGWYRQAPGKERELVAAISRSGSTYYADSVKGRFTISRDNAKNTVYLQMNSLKPDDTAVYYCNALTYFKRSEYYWGQGTQVTVSS | high polyreactivity
35 | QVQLVESGGGLVQAGGSLRLSCAASGITFSYYAMGWYRQAPGKERELVAVISRRGGTTYYADSVKGRFTISRDNAKNTVYLQMNSLKPEDTAVYYCAATYISVLGYEYWGQGTQVTVSS | high polyreactivity
36 | QVQLVESGGGLVQAGGSLRLSCAASGSTFYSNAMGWYRQAPGKERELVAGIDTSDGSTNYADSVKGRFTISRDHAMNTVYLQMNSLKPEDTAVYYCAADYTQPGFVSYDYWGQGSQVTVSS | low polyreactivity
37 | QVQLVESGGGLVQAGGSPRLSCAASGIIFQHNAMGWYRQAPGKERELVAAISSNGGRTFYADSVKGRFTISRDNAKNTVYLQMNSLKPEDTAVYYCAADRPAYGVGYWGQGTQVTVSS | high polyreactivity
38 | QVQLVESGGGLVQAGGSLRLSCAASGNIFWLNAMGWYRQAPGKEREFVADITWSTGSTYYADSVKGRFTISRDNAKNTVYLQMNSLKPEDTAVYYCAADDGYFNYLILRFKYLYDYWGQGTQVTVSS | low polyreactivity
39 | QVQLVESGGGLVQAGGSLRLSCASSGFIFRGYAMGWYRQAPGKERELVAVISRSGTSTYYADSVKGRFTISRDNAKITVYLQMNSLKPEDTAVYYCAKEVWPRYIRQAYLSGYESWGQGTQVTVSS | high polyreactivity
40 | QVQLVESGGGLVQAGGSLRLSCAASGRIFVYNAKGWNRQAPGKERQLVAAISYNGGGTYYADSVKGRFTISRDNAKNTVYLQMNSLKPEDTAVYYCAARYRSWTGKYEYWGQGTQVTVSS | high polyreactivity
41 | QVQLVESGGGLVQAGGSLRLSCAASGFTYFQYAMGWYRQAPGKERELVAAITSGVSTNYADSVKGRFTISRDNAKNTVYLQMNSLKPEDTAVYYCAADPRYLQSWRGEFAGEYWGQGTQVTVSS | low polyreactivity

Reference: the nanobody polyreactivity screen of Harvey et al. (2022)
